Assay: soluble on expression in E. coli; label from the status in PepcDB or PDB records

Sequence | soluble on expression in E. coli
MSLNKLVDAHCHVITDPDNTFCGDDGGSQGTLRCVMSSNPYDWNNLKKLAGRSTSKNDICVGFGVHPWYSHLFYVGSRRDKVSHYQDVLEYKNEEQFDSLVQVLPEPLDLEEYIKREFNDTLVSVIGEIGLDKLFRLPANGFYMQNEKARLTTVKVKLSHQETVFRRFCRLARHTSKPISIHDVKCHGKLNDICNEELLTYHSVKICLHSYTGSKETLLGQWLKKFPPDRIFVSLSKWINFKDPEEGDALVRSLPSTCILTETDYPIDNPDPSYQKALTEQLQYLNAQIARAWDETLDASQAALRVYENFQKFIKEGHHHHHH | not soluble
MGSDKIHHHHHHMNPEFIHGATEIETTNRGLRPHRLSKEIVERYCDPQFSAMERQPSGVRVVCRTTATSVTLTTYSTRVVYLDSGRPGGKIDVLIDGAPTSSTPTSGGETTEVNFITGATERRLKDPQVLTVDGLSEQEKVVEFWLPHNEEIEVISLKANAALNTVEDTRPVWINYGSSISHGSVATAPTKIWPAIVAQSKNYNLRNFGFGGSAMLDPFMARLIRDTPADLITLEIGINIVNGDVMRRRGLEAAVDGFINTIRDGHPTTPIKIVSPFYCPIHEKTPGPGAFDTSSFGSGQIRFIATGEPDEHGRLTLEMVREVLEGFVEKQKDPHLTYVDGASLYQASDAPLLDNLHPDEASHALIAQRLLKQL | not soluble
TYSLRTFFVRESAEGLTQGELMKLIKEIVENEDKRKPYSDQEIANILKEKGFKVARRTVAKYREMLGIPSSRERRI | soluble
MTTTPTLEVYLQPEQLKAALRKDATVGLTSNPKWLPPKYFYDARGSELFEQITALPEYFPTRTERELLRRYSGEIAEVTAPEILVELGSGSSEKTRLLLGAATRHGSLHTYVPQDVSVSALEGAAEQIGVEFPHLTVRGVVSDFTESLHHLPRGGRRTIAFLGGTLGNMVPAERAEFLSGIADVLEPGEHLLLGVGLVIDPAVLVPAYDDAAGVTAQFNRNVLQVLNTQLDADFPVDEFRHVALWDADNEWIEMRLEAERAMSIRVGELDLDVEFTAGEQLRTEISAKFTLDGIRRELAEAGFDVERTWTDPDDRFALVCAARN | soluble
MNHTSDTALLIVNLGTPEAPTAAAVRRYLGEFLSDRRVVSIPPLFWKPLLHMVILPIRGPRSASKYAKVWLQEGSPLSVYTRRIAEGLTQHLPDWRVAWAMRYGAPALTKALDALQAQQVRRIVILPLYPQYSTTTTASVQDVVEAWCKRTPQVQVECIQDYAEDPAWVAAVAASIRRHWQAHGRSEKLMFSFHGLPQRVANNGDPYPQRCQV | not soluble
GAMGSMNGIDDLLNINDRIKQVQNERNELASKLQNLKQSLASNDTEVALSEVIAQDIIEVGASVEGLEQLRAKYGDLQILNKLEKVAVQQTQMQAGVDKLDSFERQLDELAEQPPDQFTLDDVKALHSKLTSVFATVPQINNIDSQYAAYNKLKSKVTGKYNDVIIQRLATNWSNTFDQKLLEAQWDTQKFASTSVGLVKCLRENSTKLYQLSLLYLPLEEETQNGDSERPLSRSNNNQEPVLWNFKSLANNFNVRFTYHFHATSSSSKIETYFQFLNDYLAENLYKCINIFHDDCNGLTKPVIHEQFINYVLQPIRDKVRSTLFQNDLKTLIVLISQILATDKNLLNSFHYHGLGLVSLISDEVWEKWINYEVEMANRQFINITKNPEDFPKSSQNFVKLINKIYDYLEPFYDLDFDLLVRYKLMTCSLIFMNLTSSYLDYILTVDSLNETRTKEQELYQTMAKLQHVNFVYRKIKSLSSNFIFIQLTDIVNSTESKKYNSLFQNVENDYEKAMSTDMQNSIVHRIQKLLKETLRNYFKISTWSTLEMSVDENIGPSSVPSAELVNSINVLRRLINKLDSMDIPLAISLKVKNELLNVIVNYFTESILKLNKFNQNGLNQFLHDFKSLSSILSLPSHATNYKCMSLHELVKILKLKYDPNNQQFLNPEYIKTGNFTSLKEAYSIKYLKDTKIQDALYRIIYGNIL | soluble
MSTDPEEFDQAETLDQLAYEIILLTRYGVQNTPTNKREAIMDRSALILLTRLDAQGPMTVNELAESFGLNVSTVHRQLKAAIANGLIEVVDDQACPAKLHRPTELGKEKLQQELLARQQDLTRILHDWDEEDIKTHAKLLRKHNESLEEYLDMKWPRP | not soluble
MGHHHHHHSHMAKAITGVVCYACRIASTLLLYQELMRKGIRWLIELIKDDYNETVHKKTEVVITLDFCIRNIEKTVKVYEKLMKINLEAAELGEISDIHTKLLRLSSSQGTIETSLQDIDSRLSPGGSLADAWAHQEGTHPKDRNVEKLQVLLNCMTEIYYQFKKDKAERRLAYNEEQIHKFDKQKLYYHATKAMTHFTDECVKKYEAFLNKSEEWIRKMLHLRKQLLSLTNQCFDIEEEVSKYQEYTNELQETLPQKMFTASSGIKHTMTPIYPSSNTLVEMTLGMKKLKEEMEGVVKELAENNHILERFGSLTMDGGLRNVDCL | not soluble
MGSDKIHHHHHHMSREILRVENLVKHFPIRAGVFKRIVGWVKAVDGVSFSINEGETFGLVGESGCGKTTIGMTLLRLYEPTSGRIIVDNEDTTYYFMPRSKAKKYIKQTYLSRFVNMKESDVEKLEGVDREYARIFFEEAKGSPKKFMSILLDDLPEKRKKFRREMQIVFQDPYSSLNPRLRVKSIVGEGIVTHRIARGKEVEKRIKEILEDVGIPSAYVYRFPHEFSGGQRQRIGIARALALEPKLVVADEAVAALDVSIRSQIINLMEDLQREHKLTYIFISHDLAVVKHISDRIGVMYLGKMVELAPKKDLFEKPLHPYTVALMSAIPVPDPTKKRERIILKGDVPSPINPPSGCRFHTRCPIAKEICSKEEPAFREVEEGHFVACHFPGELR | not soluble
MSDSIQERYLVGYALAAKKQHSFIQPSLIEHSRQRGIDLVKLDPTKSLLEQGKLDCIIHKLYDVYWKENLHEFREKCPGVPVIDLPEAIERLHNRVSMLEVITQLRFPVSDSERFGVPEQVVVMDSSVLSGGGALGELKFPVIAKPLDADGSAKSHKMFLIYDQEGMKILKAPIVLQEFVNHGGVIFKVYVVGDHVKCVKRRSLPDISEEKIGTSKGSLPFSQISNLTAQEDKNIEYGEDRSLEKVEMPPLSFLTDLAKAMRESMGLNLFNFDVIRDAKDANRYLIIDINYFPGYAKMPSYEPVLTEFFWDMVTKKNHV | soluble
MKWRYGAAAGVESRGPHIRVQTVASQVPRGVCWMARVAVVVKVYPDDVSIDPKTLAERIKSKLPSGYEVLAEGEEPIAFGLKALKLVIAMNEDTEGGTEEVEQLLKNIEGVQEVEVENVSRMQ | soluble
MGSDKIHHHHHHMVDVEEKSQEVEYVDPTVNRVPNYEVSEKAFLLTQSKVSIEQRKEAAEFVLAKIKEEEMAPYYKYLCEEYLVNNGQSDLEHDEKSDSLNEWIKFDQELYNELCKKNESKIKELNEKIQKLEEDDEGELEQAQAWINLGEYYAQIGDKDNAEKTLGKSLSKAISTGAKIDVMLTIARLGFFYNDQLYVKEKLEAVNSMIEKGGDWERRNRYKTYYGIHCLAVRNFKEAAKLLVDSLATFTSIELTSYESIATYASVTGLFTLERTDLKSKVIDSPELLSLISTTAALQSISSLTISLYASDYASYFPYLLETYANVLIPCKYLNRHADFFVREMRRKVYAQLLESYKTLSLKSMASAFGVSVAFLDNDLGKFIPNKQLNCVIDRVNGIVETNRPDNKNAQYHLLVKQGDGLLTKLQKYGAAVRLTGSDRV | not soluble
MGSDKIHHHHHHMRNLISETKSLYKLIDFKDVQIFGDAANYTCILFLKIYKNDVFSYIFPKSTDTFTIQSVSNVDTFQEYKLPLPKPDHPWILSENKVSELIRKLSRKGIPLEIISKNIFQSLTTSADGIYFVQVESETRDTAKIRNIKNNLEFAVEKTILRKLLKGKDIRRCSVDWKGSYVVYPYLVKDDKASLITLSEIKDRYPLAYEYFKHYELQLKTREDNKLKDDENWHQYIYRKNLEKFEQKKIVTQVLASKNTFAIDLNGEFYFVGGDNAGGYGIVLNDNNQNMYYFVLALLNSNVLEFYLKNISTPFRGGYFSYGKRFIDKLPLLIPKDSRFDSVSSLSKEQMNISKKMRNFPNTDERDLLEREYDKRCQELNQMIYEIYGLNKLEITLLDDRLCQ | not soluble
MSLARVFNACLFFYKIGGKMAMGEFDLIKRYFQQQILVDDSVQLSIGDDCALVSVPENYQLAITTDTMVENTHFLPTISPEDLAYKAVATNLSDLAAMGAQPKWVSLALTLPNVDENWISTFSQSLLHTLKQYNVTLIGGDTTKGNLSITITAQGFVEKNKGICRHKAQIGDLIYVSSTLGDSAAGLTQILLGKSAVDSDDVFLQQRHLRPTPRIELGQALIGIAHVAIDLSDGLISDLGHILERSQCSAEVELTALPLSSSILNKYDRTQAEQFALSGGEDYELCFTIPPEYKDELELRLKKLNVPCTCIGKINEKCGDFSPRFLRDGKPVNITFSSGFDHFKESKEGHHHHHH | soluble
MGSDKIHHHHHHMLNFYPGPSKLHANIDLHLQQAITSGILSMNHRSMDFMQLYQQVQENFEQFYDLPKDYKVYFTSAATECWTILAQSFPNRSFLHLYNGSFGKKWMEVSKQLEVEHTSVVFDIHGELPVTEINPDTAAEIVCTTLVETSNGTFLSKDIQAAVRETFSDALIAVDATSALAGLSVTWEHADIWFASVQKCFGLPSGLGILILSPTAQHTVEFRSKDIHYNSLKRIVENGASFQTTHTPNILGIYLLAQRLKEIDVTEFFNRNERMNYLYNHFSSHPSLQPLIIEKSVQSATVLTLKGDEEYIKQVKKSLKAQDIIIGSGYGVWKENTIRLANFPAHTDEDFKKLLLVI | not soluble
MSLNINKVFYHSSTNMNEVPDNSVDLIITSPPYFNIKDYAKNGTQDLQHSAQHVEDLGALEKYEDYLLGLLKVWLECYRALKPNGKLCINVPLMPMLKKVLNTHYNRHIFDLHADIQHSILHDLNNMLKNKPKMFLLDVYIWKRANPTKRLMFGSYPYPRNFYAQNTIEFIGVFVKDGKPKQPTEEQKEQSQLTQEEWVEFTKQIWEIPIPNKNDIAFGKHAALMPAELARRLIRLYSCVGDVVLDPFSGSGTTLREAKLLKRNFIGYELYENYKPLIEQKLGNLFDFEEGHHHHHH | soluble
MAHHHHHHMTALERYAFKVDYCDPQANLVRQYLLLYFAEDSTIEMHDLKTKRVFLKRCAYPSLTPRELFIGATVGVFSRSLKLVDYGDEVTRRHFSGSEAEFVVFIQEGGLCHMGSIIDRMHTWELRITNIRLVDLPDSLCRDLGVSRRCVAILFKGSNAIEKVGGLSTEFPNMTVVVAEPSDVNSVRGAAFGPGGTTAVMKNCSVCVIKPHAIMSGYQGAIIQRLIDEGFHITALGMYSLTVADAEDFLEVYNGVVPEYQRLVEQMSSGPCWAVQVCAENSVSALRAICGPHDPDVCHVLFPHTIRSKYGVDRTRNGVHCTDLEEDAPLESEFFFSLLQNA | not soluble
MPPEIMRFKERLEEAMNGESSRAFAAKCGLSDGVIRNYLSGKTYPSLDRLAQIAYATGRPIEWFIQSQSMPMVEHKNNQENKNSQPDRSTLKTKLIAIVELLEDKELHSAIELFRKKGFEALMPEIFSSDDSIQADLQGISQQTLQTAKMLESLPTDTRKKILSKYGIYEQEGLVAPSQEPQDVKKAV | not soluble
MHHHHHHSSGVDLGTENLYFQSMSHQVGVAGAVFDESTRKILVVQDRNKLKNMWKFPGGLSEPEEDIGDTAVREVFEETGIKSEFRSVLSIRQQHTNPGAFGKSDMYIICRLKPYSFTINFCQEECLRCEWMDLNDLAKTENTTPITSRVARLLLYGYREGFDKIDLTVEELPAVYTGLFYKLYHKELPENYKTMKGID | soluble
MVFMEENKKYRILGTLLYYVLRIISSTLKIEIVNKYGIDMQRPHIYGFWHSKLFITPIFFRNVEKKLAMSSPTKDGELISVPLEKMGYILVRGSSDKNQISSTISLLKYLKKGYSIGTPLDGPKGPKEKPKKGLLYLSQKTSVPLVPVGISYSKKWILKKTWDQFEIPKPFSKVKIFLGEPILIDDDEDLDKYTEIVKNGINSLNNQIEFLEHHHHHH | not soluble

Source: the DeepSol protein solubility set
